# In US20260232840A1 (UNIVERSITY OF BRITISH COLUMBIA, published 2026):
# Assays:
# [1] = molecular target: T1, aggregated SOD1 (UniProt P00441 2-154); assay: indirect ELISA; OD on aggregated SOD1 over OD on dimeric SOD1
# T1 construct: Same protein as Dim SOD1, in a different conformational state; also called Agg SOD1
# Method: (§1) Supernatants producing hybridoma cell cultures producing rabbit monoclonal antibodies are analyzed by indirect ELISA for antibody activity on plates coated with 1 μg/well of peptide or protein antigen. […] The binding of anti-SOD1 antibodies were also characterized by ratio analyzes.
# [2] = molecular target: T1, aggregated SOD1; assay: indirect ELISA; ratio of the EC50 values on aggregated and dimeric SOD1
# Method: as §1
# T1 sequence (P00441 2-154 limits assumed): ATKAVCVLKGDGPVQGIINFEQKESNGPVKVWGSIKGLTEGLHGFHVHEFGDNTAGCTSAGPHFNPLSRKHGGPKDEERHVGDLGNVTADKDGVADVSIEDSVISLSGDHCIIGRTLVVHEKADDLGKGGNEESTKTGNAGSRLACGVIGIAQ
Ab conc (ng/mL) at peak agg/dim OD ratio [1] [ng/mL],Peak agg/dim OD ratio [1],Ratio Agg/Dim SOD1 EC50 [2],Binder
10.3,12.7,30.4,"rabbit anti-SOD1 antibody A-7-58 H1/L1 (antibody, V domains shown, Rabbit monoclonal antibody; also called A-58 H1 + A-58 L1) VH: QSVEESGGRLVTPGTPLTLTCTVSGIDLSSSVMAWVRQAPGKGLEWIGIITNRGNRYYAKWAKGRFTISRTSTTVGLKITSPTTADTATYFCGRGSVWGPGTLVTVSS VL: QVLTQTPASVSAAIGGTVTIKCQSSQSFLDDNDLAWYQKKPGRPPKRLIKSASTLDSGVPSRFSGSGSGTQFTLTISDVQCADAATYYCLGDYDCSVGDCSAFGGGTEVVVKG"
6.01,10.7,26.7,"rabbit anti-SOD1 antibody A-7-63 H2/L1 (antibody, Rabbit monoclonal antibody; also called A-63 H2 + A-63 L1) heavy: QSVGESGGGLVTPGTPLTLTCTVSGFSLSSYGVSWVRQAPGKGLEYIGFISTRGNPYYASWAKGRFTISKTSTTVDLKITSPTTEDTATYFCAGATVVGDSIWGPGTLVTVSSGQPKAPSVFPLAPCCGDTPSSTVTLGCLVKGYLPEPVTVTWNSGTLTNGVRTFPSVRQSSGLYSLSSVVSVTSSSQPVTCNVAHPATNTKVDKTVAPSTCSKPTCPPPELLGGPSVFIFPPKPKDTLMISRTPEVTCVVVDVSQDDPEVQFTWYINNEQVRTARPPLREQQFNSTIRVVSTLPIAHQDWLRGKEFKCKVHNKALPAPIEKTISKARGQPLEPKVYTMGPPREELSSRSVSLTCMINGFYPSDISVEWEKNGKAEDNYKTTPAVLDSDGSYFLYSKLSVPTSEWQRGDVFTCSVMHEALHNHYTQKSISRSPGK light: QVLTQTASSVSAAVGGTVTISCQSSQSVYKGYWQAWYQQKPGQPPKLLIYETSTLASGVPSRFSGSGSGTQFTLTISGVQCDDAATYYCAGGYSNNIYTFGGGTEVVVKGDPVAPTVLIFPPAADQVATGTVTIVCVANKYFPDVTVTWEVDGTTQTTGIENSKTPQNSADCTYNLSSTLTLTSTQYNSHKEYTCKVTQGTTSVVQSFNRGDC"
5.11,11.6,32.8,"rabbit anti-SOD1 antibody A-7-63 H3/L1 (antibody, Rabbit monoclonal antibody; also called A-63 H3 + A-63 L1) heavy: QSVEESGGGLVTPGTPLTLTCTVSGFSLSSYGVSWVRQAPGKGLEYIGFISTRGNPYYASWAKGRFTISKTSTTVDLKITSPTTEDTATYFCAGATVVGDSIWGPGTLVTVSSGQPKAPSVFPLAPCCGDTPSSTVTLGCLVKGYLPEPVTVTWNSGTLTNGVRTFPSVRQSSGLYSLSSVVSVTSSSQPVTCNVAHPATNTKVDKTVAPSTCSKPTCPPPELLGGPSVFIFPPKPKDTLMISRTPEVTCVVVDVSQDDPEVQFTWYINNEQVRTARPPLREQQFNSTIRVVSTLPIAHQDWLRGKEFKCKVHNKALPAPIEKTISKARGQPLEPKVYTMGPPREELSSRSVSLTCMINGFYPSDISVEWEKNGKAEDNYKTTPAVLDSDGSYFLYSKLSVPTSEWQRGDVFTCSVMHEALHNHYTQKSISRSPGK light: QVLTQTASSVSAAVGGTVTISCQSSQSVYKGYWQAWYQQKPGQPPKLLIYETSTLASGVPSRFSGSGSGTQFTLTISGVQCDDAATYYCAGGYSNNIYTFGGGTEVVVKGDPVAPTVLIFPPAADQVATGTVTIVCVANKYFPDVTVTWEVDGTTQTTGIENSKTPQNSADCTYNLSSTLTLTSTQYNSHKEYTCKVTQGTTSVVQSFNRGDC"
